Measured values reported in patent US20200087373A1 (UNIVERSITY OF COPENHAGEN, published 2020).
Ends that are not written are not given here. * marks the point of attachment. C16 diacid = O=C(O)CCCCCCCCCCCCCCC(=O)*; Palmitoyl = CCCCCCCCCCCCCCCC(=O)*

T1: human GIP receptor (human, UniProt P48546 22-466)
T1 sequence (looked up): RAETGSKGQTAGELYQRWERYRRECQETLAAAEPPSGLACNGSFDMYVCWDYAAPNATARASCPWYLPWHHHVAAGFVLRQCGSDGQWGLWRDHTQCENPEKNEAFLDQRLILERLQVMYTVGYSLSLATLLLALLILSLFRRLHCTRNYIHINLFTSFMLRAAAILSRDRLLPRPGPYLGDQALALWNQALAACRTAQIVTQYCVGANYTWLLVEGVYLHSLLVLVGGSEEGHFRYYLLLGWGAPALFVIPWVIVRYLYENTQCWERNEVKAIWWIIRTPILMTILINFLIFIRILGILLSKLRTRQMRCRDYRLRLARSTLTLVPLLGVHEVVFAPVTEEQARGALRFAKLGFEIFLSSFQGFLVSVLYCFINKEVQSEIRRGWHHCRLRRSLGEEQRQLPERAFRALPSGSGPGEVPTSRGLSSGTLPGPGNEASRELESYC

B1: AT318 [hGIP(3-30)NH2[Q29K]-C16diacid/29] (peptide)
peptide: EGTFISDYSIAMDKIHQQDFVNWLLAK(C16 diacid)K-NH2
modifications: N-terminus assumed
SMILES: CC[C@H](C)[C@H](NC(=O)[C@H](CO)NC(=O)[C@H](Cc1ccc(O)cc1)NC(=O)[C@H](CC(=O)O)NC(=O)[C@H](CO)NC(=O)[C@@H](NC(=O)[C@H](Cc1ccccc1)NC(=O)[C@@H](NC(=O)CNC(=O)[C@@H](N)CCC(=O)O)[C@@H](C)O)[C@@H](C)CC)C(=O)N[C@@H](C)C(=O)N[C@@H](CCSC)C(=O)N[C@@H](CC(=O)O)C(=O)N[C@@H](CCCCN)C(=O)N[C@H](C(=O)N[C@@H](Cc1c[nH]cn1)C(=O)N[C@@H](CCC(N)=O)C(=O)N[C@@H](CCC(N)=O)C(=O)N[C@@H](CC(=O)O)C(=O)N[C@@H](Cc1ccccc1)C(=O)N[C@H](C(=O)N[C@@H](CC(N)=O)C(=O)N[C@@H](Cc1c[nH]c2ccccc12)C(=O)N[C@@H](CC(C)C)C(=O)N[C@@H](CC(C)C)C(=O)N[C@@H](C)C(=O)N[C@@H](CCCCNC(=O)CCCCCCCCCCCCCCC(=O)O)C(=O)N[C@@H](CCCCN)C(N)=O)C(C)C)[C@@H](C)CC
B2: AT134 [hGIP(5-30)NH2[K16R; H18K; K30R]-16/18] (peptide)
peptide: TFISDYSIAMDRIK(Palmitoyl)QQDFVNWLLAQR-NH2
modifications: N-terminus assumed
SMILES: CCCCCCCCCCCCCCCC(=O)NCCCC[C@H](NC(=O)[C@@H](NC(=O)[C@H](CCCNC(=N)N)NC(=O)[C@H](CC(=O)O)NC(=O)[C@H](CCSC)NC(=O)[C@H](C)NC(=O)[C@@H](NC(=O)[C@H](CO)NC(=O)[C@H](Cc1ccc(O)cc1)NC(=O)[C@H](CC(=O)O)NC(=O)[C@H](CO)NC(=O)[C@@H](NC(=O)[C@H](Cc1ccccc1)NC(=O)[C@@H](N)[C@@H](C)O)[C@@H](C)CC)[C@@H](C)CC)[C@@H](C)CC)C(=O)N[C@@H](CCC(N)=O)C(=O)N[C@@H](CCC(N)=O)C(=O)N[C@@H](CC(=O)O)C(=O)N[C@@H](Cc1ccccc1)C(=O)N[C@H](C(=O)N[C@@H](CC(N)=O)C(=O)N[C@@H](Cc1c[nH]c2ccccc12)C(=O)N[C@@H](CC(C)C)C(=O)N[C@@H](CC(C)C)C(=O)N[C@@H](C)C(=O)N[C@@H](CCC(N)=O)C(=O)N[C@@H](CCCNC(=N)N)C(N)=O)C(C)C
B3: AT315 [hGIP(3-30)NH2[L26K]-C16diacid/26] (peptide)
peptide: EGTFISDYSIAMDKIHQQDFVNWK(C16 diacid)LAQK-NH2
modifications: N-terminus assumed
SMILES: CC[C@H](C)[C@H](NC(=O)[C@H](CO)NC(=O)[C@H](Cc1ccc(O)cc1)NC(=O)[C@H](CC(=O)O)NC(=O)[C@H](CO)NC(=O)[C@@H](NC(=O)[C@H](Cc1ccccc1)NC(=O)[C@@H](NC(=O)CNC(=O)[C@@H](N)CCC(=O)O)[C@@H](C)O)[C@@H](C)CC)C(=O)N[C@@H](C)C(=O)N[C@@H](CCSC)C(=O)N[C@@H](CC(=O)O)C(=O)N[C@@H](CCCCN)C(=O)N[C@H](C(=O)N[C@@H](Cc1c[nH]cn1)C(=O)N[C@@H](CCC(N)=O)C(=O)N[C@@H](CCC(N)=O)C(=O)N[C@@H](CC(=O)O)C(=O)N[C@@H](Cc1ccccc1)C(=O)N[C@H](C(=O)N[C@@H](CC(N)=O)C(=O)N[C@@H](Cc1c[nH]c2ccccc12)C(=O)N[C@@H](CCCCNC(=O)CCCCCCCCCCCCCCC(=O)O)C(=O)N[C@@H](CC(C)C)C(=O)N[C@@H](C)C(=O)N[C@@H](CCC(N)=O)C(=O)N[C@@H](CCCCN)C(N)=O)C(C)C)[C@@H](C)CC
B4: AT145 [hGIP(5-30)NH2[H18K]-C16/18] (peptide)
peptide: TFISDYSIAMDKIK(Palmitoyl)QQDFVNWLLAQK-NH2
modifications: N-terminus assumed
SMILES: CCCCCCCCCCCCCCCC(=O)NCCCC[C@H](NC(=O)[C@@H](NC(=O)[C@H](CCCCN)NC(=O)[C@H](CC(=O)O)NC(=O)[C@H](CCSC)NC(=O)[C@H](C)NC(=O)[C@@H](NC(=O)[C@H](CO)NC(=O)[C@H](Cc1ccc(O)cc1)NC(=O)[C@H](CC(=O)O)NC(=O)[C@H](CO)NC(=O)[C@@H](NC(=O)[C@H](Cc1ccccc1)NC(=O)[C@@H](N)[C@@H](C)O)[C@@H](C)CC)[C@@H](C)CC)[C@@H](C)CC)C(=O)N[C@@H](CCC(N)=O)C(=O)N[C@@H](CCC(N)=O)C(=O)N[C@@H](CC(=O)O)C(=O)N[C@@H](Cc1ccccc1)C(=O)N[C@H](C(=O)N[C@@H](CC(N)=O)C(=O)N[C@@H](Cc1c[nH]c2ccccc12)C(=O)N[C@@H](CC(C)C)C(=O)N[C@@H](CC(C)C)C(=O)N[C@@H](C)C(=O)N[C@@H](CCC(N)=O)C(=O)N[C@@H](CCCCN)C(N)=O)C(C)C
B5: AT133 [hGIP(5-30)NH2[K16R; H18K; K30R]-C16/5] (peptide)
peptide: Palmitoyl-TFISDYSIAMDRIKQQDFVNWLLAQR-NH2
SMILES: CCCCCCCCCCCCCCCC(=O)N[C@H](C(=O)N[C@@H](Cc1ccccc1)C(=O)N[C@H](C(=O)N[C@@H](CO)C(=O)N[C@@H](CC(=O)O)C(=O)N[C@@H](Cc1ccc(O)cc1)C(=O)N[C@@H](CO)C(=O)N[C@H](C(=O)N[C@@H](C)C(=O)N[C@@H](CCSC)C(=O)N[C@@H](CC(=O)O)C(=O)N[C@@H](CCCNC(=N)N)C(=O)N[C@H](C(=O)N[C@@H](CCCCN)C(=O)N[C@@H](CCC(N)=O)C(=O)N[C@@H](CCC(N)=O)C(=O)N[C@@H](CC(=O)O)C(=O)N[C@@H](Cc1ccccc1)C(=O)N[C@H](C(=O)N[C@@H](CC(N)=O)C(=O)N[C@@H](Cc1c[nH]c2ccccc12)C(=O)N[C@@H](CC(C)C)C(=O)N[C@@H](CC(C)C)C(=O)N[C@@H](C)C(=O)N[C@@H](CCC(N)=O)C(=O)N[C@@H](CCCNC(=N)N)C(N)=O)C(C)C)[C@@H](C)CC)[C@@H](C)CC)[C@@H](C)CC)[C@@H](C)O
B6: AT316 [hGIP(3-30)NH2[L27K]-C16diacid/27] (peptide)
peptide: EGTFISDYSIAMDKIHQQDFVNWLK(C16 diacid)AQK-NH2
modifications: N-terminus assumed
SMILES: CC[C@H](C)[C@H](NC(=O)[C@H](CO)NC(=O)[C@H](Cc1ccc(O)cc1)NC(=O)[C@H](CC(=O)O)NC(=O)[C@H](CO)NC(=O)[C@@H](NC(=O)[C@H](Cc1ccccc1)NC(=O)[C@@H](NC(=O)CNC(=O)[C@@H](N)CCC(=O)O)[C@@H](C)O)[C@@H](C)CC)C(=O)N[C@@H](C)C(=O)N[C@@H](CCSC)C(=O)N[C@@H](CC(=O)O)C(=O)N[C@@H](CCCCN)C(=O)N[C@H](C(=O)N[C@@H](Cc1c[nH]cn1)C(=O)N[C@@H](CCC(N)=O)C(=O)N[C@@H](CCC(N)=O)C(=O)N[C@@H](CC(=O)O)C(=O)N[C@@H](Cc1ccccc1)C(=O)N[C@H](C(=O)N[C@@H](CC(N)=O)C(=O)N[C@@H](Cc1c[nH]c2ccccc12)C(=O)N[C@@H](CC(C)C)C(=O)N[C@@H](CCCCNC(=O)CCCCCCCCCCCCCCC(=O)O)C(=O)N[C@@H](C)C(=O)N[C@@H](CCC(N)=O)C(=O)N[C@@H](CCCCN)C(N)=O)C(C)C)[C@@H](C)CC
B7: AT317 [hGIP(3-30)NH2[A28K]-C16diacid/28] (peptide)
peptide: EGTFISDYSIAMDKIHQQDFVNWLLK(C16 diacid)QK-NH2
modifications: N-terminus assumed
SMILES: CC[C@H](C)[C@H](NC(=O)[C@H](CO)NC(=O)[C@H](Cc1ccc(O)cc1)NC(=O)[C@H](CC(=O)O)NC(=O)[C@H](CO)NC(=O)[C@@H](NC(=O)[C@H](Cc1ccccc1)NC(=O)[C@@H](NC(=O)CNC(=O)[C@@H](N)CCC(=O)O)[C@@H](C)O)[C@@H](C)CC)C(=O)N[C@@H](C)C(=O)N[C@@H](CCSC)C(=O)N[C@@H](CC(=O)O)C(=O)N[C@@H](CCCCN)C(=O)N[C@H](C(=O)N[C@@H](Cc1c[nH]cn1)C(=O)N[C@@H](CCC(N)=O)C(=O)N[C@@H](CCC(N)=O)C(=O)N[C@@H](CC(=O)O)C(=O)N[C@@H](Cc1ccccc1)C(=O)N[C@H](C(=O)N[C@@H](CC(N)=O)C(=O)N[C@@H](Cc1c[nH]c2ccccc12)C(=O)N[C@@H](CC(C)C)C(=O)N[C@@H](CC(C)C)C(=O)N[C@@H](CCCCNC(=O)CCCCCCCCCCCCCCC(=O)O)C(=O)N[C@@H](CCC(N)=O)C(=O)N[C@@H](CCCCN)C(N)=O)C(C)C)[C@@H](C)CC
B8: AT135 [hGIP(5-30)NH2[K16R; K30R]-C16/5] (peptide)
peptide: Palmitoyl-TFISDYSIAMDRIHQQDFVNWLLAQR-NH2
SMILES: CCCCCCCCCCCCCCCC(=O)N[C@H](C(=O)N[C@@H](Cc1ccccc1)C(=O)N[C@H](C(=O)N[C@@H](CO)C(=O)N[C@@H](CC(=O)O)C(=O)N[C@@H](Cc1ccc(O)cc1)C(=O)N[C@@H](CO)C(=O)N[C@H](C(=O)N[C@@H](C)C(=O)N[C@@H](CCSC)C(=O)N[C@@H](CC(=O)O)C(=O)N[C@@H](CCCNC(=N)N)C(=O)N[C@H](C(=O)N[C@@H](Cc1c[nH]cn1)C(=O)N[C@@H](CCC(N)=O)C(=O)N[C@@H](CCC(N)=O)C(=O)N[C@@H](CC(=O)O)C(=O)N[C@@H](Cc1ccccc1)C(=O)N[C@H](C(=O)N[C@@H](CC(N)=O)C(=O)N[C@@H](Cc1c[nH]c2ccccc12)C(=O)N[C@@H](CC(C)C)C(=O)N[C@@H](CC(C)C)C(=O)N[C@@H](C)C(=O)N[C@@H](CCC(N)=O)C(=O)N[C@@H](CCCNC(=N)N)C(N)=O)C(C)C)[C@@H](C)CC)[C@@H](C)CC)[C@@H](C)CC)[C@@H](C)O

molecular target: T1, human GIP receptor; experiment: cell-based or functional assay

Binder | cAMP agonism, EC50 (log) | cAMP agonism, Emax | cAMP agonism, nM (EC50) | cAMP antagonism, log (IC50) | cAMP antagonism, nM (IC50)
B1 | -6.9 log M | 10.8% | 131 nM | -6.6 log M | 224 nM
B2 | -7 log M | 11% | 35 nM | -7 log M | 93 nM
B3 | -6.7 log M | 5.9% | 183 nM | -6.3 log M | 556 nM
B4 | -7 log M | 16% | 33 nM | -7.2 log M | 66 nM
B5 |  | 0% |  | -5.4 log M | 3810 nM
B6 | -6.5 log M | 6.2% | 294 nM | -6.2 log M | 649 nM
B7 | -7.2 log M | 21.8% | 62 nM | -6.6 log M | 228 nM
B8 |  | 0% |  |  | 
